Values quoted from earlier work, collected in PMC6707866.

Biological target: Bag3 (Homo sapiens) (UniProt O95817)
Chain of UniProt O95817 (O95817 2-575): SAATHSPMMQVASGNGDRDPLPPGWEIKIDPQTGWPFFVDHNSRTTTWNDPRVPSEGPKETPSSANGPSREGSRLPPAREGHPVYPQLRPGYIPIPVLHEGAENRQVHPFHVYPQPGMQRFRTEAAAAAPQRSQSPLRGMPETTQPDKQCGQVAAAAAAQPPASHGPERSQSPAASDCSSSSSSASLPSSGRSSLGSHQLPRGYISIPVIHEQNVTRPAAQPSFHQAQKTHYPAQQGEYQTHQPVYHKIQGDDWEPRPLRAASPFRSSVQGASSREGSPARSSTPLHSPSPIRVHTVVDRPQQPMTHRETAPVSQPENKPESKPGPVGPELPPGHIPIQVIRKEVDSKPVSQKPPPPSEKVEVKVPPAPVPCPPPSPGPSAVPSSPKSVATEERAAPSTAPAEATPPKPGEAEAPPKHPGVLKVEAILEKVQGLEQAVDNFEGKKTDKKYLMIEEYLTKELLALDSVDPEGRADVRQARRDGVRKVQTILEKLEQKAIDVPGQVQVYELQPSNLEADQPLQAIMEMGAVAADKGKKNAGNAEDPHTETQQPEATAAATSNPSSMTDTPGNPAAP

Kd: 25 nM
Substance: Hsp70 (from UniProt P0DMV8)
